The numbers were not newly measured in article PMC4660202, which cites them from elsewhere.

The target in the data set is IZUMO1 ECD (Mus musculus) (UniProt Q9D9J7).
UniProt Q9D9J7, sequence (Q9D9J7 22-319): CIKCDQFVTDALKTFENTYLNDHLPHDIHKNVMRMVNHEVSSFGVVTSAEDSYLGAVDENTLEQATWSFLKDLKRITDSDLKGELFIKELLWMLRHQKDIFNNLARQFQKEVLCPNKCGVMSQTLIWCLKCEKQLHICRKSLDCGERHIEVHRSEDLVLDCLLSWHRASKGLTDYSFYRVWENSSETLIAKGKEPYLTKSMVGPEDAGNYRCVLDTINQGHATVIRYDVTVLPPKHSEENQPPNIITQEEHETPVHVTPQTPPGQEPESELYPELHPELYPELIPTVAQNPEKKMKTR

The Kd is the concentration at which binding is half-saturated. With JUNO (from UniProt Q9EQF4), the Kd was 12.3 µM.
